Results taken from patent US20140087995A1 (published 2014).
Numbered stars: 1 amine (or outer) side, 2 acyl side, 3 side chain; on linkers, the order of the positions; unused ones are H or OH. Bridge positions count the residues as written; N and C are the ends. Side chains are listed from the residue outwards. Ends that are not written are not given here. * marks the point of attachment. C20 diacid = O=C(O)CCCCCCCCCCCCCCCCCCC(=O)*; γGlu = O=C(O)[C@H](CCC(=O)[*:2])N[*:1]

What was measured:
[1] = target: T1, rat calcitonin receptor (rat, UniProt P32214 25-516); assay: ratio IC50 rat calcitonin receptor / IC50 rat amylin receptor (reference)
T1 construct: whole, on cells; Membranes of transiently transfected BHK tk'ts 13 cells (Assay VIII); also called rCTR
T1 sequence (looked up): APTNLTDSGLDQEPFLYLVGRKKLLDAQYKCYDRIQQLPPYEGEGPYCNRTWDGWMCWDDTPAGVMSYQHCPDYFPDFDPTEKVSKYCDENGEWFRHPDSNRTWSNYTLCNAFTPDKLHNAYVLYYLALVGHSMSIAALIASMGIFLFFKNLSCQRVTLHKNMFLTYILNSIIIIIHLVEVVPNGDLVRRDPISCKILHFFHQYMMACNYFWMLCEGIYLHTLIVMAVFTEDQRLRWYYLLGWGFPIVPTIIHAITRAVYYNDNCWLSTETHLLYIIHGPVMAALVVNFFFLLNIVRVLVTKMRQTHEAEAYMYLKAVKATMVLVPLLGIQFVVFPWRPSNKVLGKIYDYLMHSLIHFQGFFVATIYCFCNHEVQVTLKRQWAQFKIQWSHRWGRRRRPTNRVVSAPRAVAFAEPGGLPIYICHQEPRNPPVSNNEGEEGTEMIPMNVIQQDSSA

[2] = target: T2, human calcitonin receptor (human, UniProt P30988 25-474); assay: ratio IC50 human calcitonin receptor / IC50 human amylin receptor (reference)
T2 construct: whole, on cells; Membranes of a stably transfected BHK cell line (Assay VII); also called hCTR; hCT
T2 sequence (looked up): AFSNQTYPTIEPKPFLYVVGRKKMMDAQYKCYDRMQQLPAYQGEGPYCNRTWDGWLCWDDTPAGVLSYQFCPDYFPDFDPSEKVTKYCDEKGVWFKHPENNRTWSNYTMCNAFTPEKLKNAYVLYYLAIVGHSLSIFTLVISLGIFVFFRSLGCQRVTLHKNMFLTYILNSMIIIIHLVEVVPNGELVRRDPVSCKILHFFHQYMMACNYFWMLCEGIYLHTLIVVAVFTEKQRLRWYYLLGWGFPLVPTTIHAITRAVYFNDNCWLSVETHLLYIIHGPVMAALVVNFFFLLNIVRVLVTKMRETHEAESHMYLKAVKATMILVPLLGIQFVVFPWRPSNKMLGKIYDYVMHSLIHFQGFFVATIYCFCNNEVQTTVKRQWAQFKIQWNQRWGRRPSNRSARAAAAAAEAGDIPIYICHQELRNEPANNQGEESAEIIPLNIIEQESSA
Method in brief: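 Membranes (35 ng/μL final) + SPA beads, 50 mM Hepes pH 7.4 buffer with 1 mM CaCl2, 5 mM MgCl₂, 0.1% OA, 0.02% Tween20; 120 min, 25° C, shaking; centrifuged, counted; IC₅₀ by one-site binding competition.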

[3] = target: T1, rat calcitonin receptor; assay: SPA competition with 125I-calcitonin, membranes of BHK cells with rat calcitonin receptor (Assay VIII)
[4] = target: T3, rat amylin receptor (rat calcitonin receptor + rat RAMP 3) (rat, UniProt P32214 25-516; Q9JJ73 23-147); assay: SPA competition with 125I-rat amylin, membranes of BHK cells with rat calcitonin receptor + rat RAMP3 (Assay VI)
T3 construct: whole, on cells; Membranes of transiently transfected BHK tk'ts 13 cells (Assay VI); also called rAmylin-R; rat amylin 3(a) receptor
T3 sequence (looked up) 1: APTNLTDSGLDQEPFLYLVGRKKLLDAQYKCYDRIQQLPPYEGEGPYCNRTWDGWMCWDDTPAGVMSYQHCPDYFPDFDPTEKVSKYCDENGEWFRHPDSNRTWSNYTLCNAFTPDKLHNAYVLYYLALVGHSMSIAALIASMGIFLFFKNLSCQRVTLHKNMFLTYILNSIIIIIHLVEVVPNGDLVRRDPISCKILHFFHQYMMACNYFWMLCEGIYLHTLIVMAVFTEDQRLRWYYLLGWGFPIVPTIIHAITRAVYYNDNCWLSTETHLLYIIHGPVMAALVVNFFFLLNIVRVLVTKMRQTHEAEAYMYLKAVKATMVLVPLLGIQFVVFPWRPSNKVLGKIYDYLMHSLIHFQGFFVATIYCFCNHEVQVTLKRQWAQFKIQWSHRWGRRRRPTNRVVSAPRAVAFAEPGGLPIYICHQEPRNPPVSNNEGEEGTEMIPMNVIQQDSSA
T3 sequence (looked up) 2: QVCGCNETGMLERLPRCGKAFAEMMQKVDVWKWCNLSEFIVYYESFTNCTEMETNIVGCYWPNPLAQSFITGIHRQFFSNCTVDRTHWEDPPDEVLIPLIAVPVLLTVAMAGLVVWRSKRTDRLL

| Binder | Ratio rCT/rAmylin binding [1] | Ratio hCT/hAmylin binding [2] | IC50 [3] | IC50 [4] |
| --- | --- | --- | --- | --- |
| K([γGlu-γGlu-C20 diacid])CNTATCATQRLAEFLRHSSPNFGAIPSSTNVGRNTY-NH2 (disulfide 2-7; N-terminus assumed; SMILES CC[C@H](C)[C@H](NC(=O)[C@H](C)NC(=O)CNC(=O)[C@H](Cc1ccccc1)NC(=O)[C@H](CC(N)=O)NC(=O)[C@@H]1CCCN1C(=O)[C@H](CO)NC(=O)[C@H](CO)NC(=O)[C@H](Cc1c[nH]cn1)NC(=O)[C@H](CCCNC(=N)N)NC(=O)[C@H](CC(C)C)NC(=O)[C@H](Cc1ccccc1)NC(=O)[C@H](CCC(=O)O)NC(=O)[C@H](C)NC(=O)[C@H](CC(C)C)NC(=O)[C@H](CCCNC(=N)N)NC(=O)[C@H](CCC(N)=O)NC(=O)[C@@H](NC(=O)[C@H](C)NC(=O)[C@@H]1CSSC[C@H](NC(=O)[C@@H](N)CCCCNC(=O)CC[C@H](NC(=O)CC[C@H](NC(=O)CCCCCCCCCCCCCCCCCCC(=O)O)C(=O)O)C(=O)O)C(=O)N[C@@H](CC(N)=O)C(=O)N[C@@H]([C@@H](C)O)C(=O)N[C@@H](C)C(=O)N[C@@H]([C@@H](C)O)C(=O)N1)[C@@H](C)O)C(=O)N1CCC[C@H]1C(=O)N[C@@H](CO)C(=O)N[C@@H](CO)C(=O)N[C@H](C(=O)N[C@@H](CC(N)=O)C(=O)N[C@H](C(=O)NCC(=O)N[C@@H](CCCNC(=N)N)C(=O)N[C@@H](CC(N)=O)C(=O)N[C@H](C(=O)N[C@@H](Cc1ccc(O)cc1)C(N)=O)[C@@H](C)O)C(C)C)[C@@H](C)O, also called compound 88) | 84.9 | 46.5 | 196 nM | 2.31 nM |
| K([γGlu-γGlu-C20 diacid])CNTATCATQRLAEFLRHSSPNFGAIPSSTNVGSRTY-NH2 (disulfide 2-7; N-terminus assumed; SMILES CC[C@H](C)[C@H](NC(=O)[C@H](C)NC(=O)CNC(=O)[C@H](Cc1ccccc1)NC(=O)[C@H](CC(N)=O)NC(=O)[C@@H]1CCCN1C(=O)[C@H](CO)NC(=O)[C@H](CO)NC(=O)[C@H](Cc1c[nH]cn1)NC(=O)[C@H](CCCNC(=N)N)NC(=O)[C@H](CC(C)C)NC(=O)[C@H](Cc1ccccc1)NC(=O)[C@H](CCC(=O)O)NC(=O)[C@H](C)NC(=O)[C@H](CC(C)C)NC(=O)[C@H](CCCNC(=N)N)NC(=O)[C@H](CCC(N)=O)NC(=O)[C@@H](NC(=O)[C@H](C)NC(=O)[C@@H]1CSSC[C@H](NC(=O)[C@@H](N)CCCCNC(=O)CC[C@H](NC(=O)CC[C@H](NC(=O)CCCCCCCCCCCCCCCCCCC(=O)O)C(=O)O)C(=O)O)C(=O)N[C@@H](CC(N)=O)C(=O)N[C@@H]([C@@H](C)O)C(=O)N[C@@H](C)C(=O)N[C@@H]([C@@H](C)O)C(=O)N1)[C@@H](C)O)C(=O)N1CCC[C@H]1C(=O)N[C@@H](CO)C(=O)N[C@@H](CO)C(=O)N[C@H](C(=O)N[C@@H](CC(N)=O)C(=O)N[C@H](C(=O)NCC(=O)N[C@@H](CO)C(=O)N[C@@H](CCCNC(=N)N)C(=O)N[C@H](C(=O)N[C@@H](Cc1ccc(O)cc1)C(N)=O)[C@@H](C)O)C(C)C)[C@@H](C)O, also called compound 89) | 48.8 | 28 | 115 nM | 2.37 nM |
